Test system: Sprague-Dawley rats
Assay: Peripheral IGFBP-3 infusion during hyperinsulinemic clamp
Format: in vivo, rat
Protocol: To study the acute effects of an infusion of IGFBP-3, two groups of awake, unstressed, chronically catheterized Sprague-Dawley rats (˜300 g) were studied for 300 min (n=6 in each group) under hyperinsulinemic clamp (as previously described). From 120 min the rats received a primed continuous infusion of IGFBP-3 (0.06 mg/kg/hr) or saline (control) for an additional 3 h.
Plasma samples for determination of [^3H]glucose and [^3H] water specific activities were obtained at 10-min intervals during the basal and clamp periods. Steady state conditions for the plasma glucose concentration and specific activity were achieved within 90 min in all the studies. Plasma samples for determination of plasma IGF-1 (rat and human), IGFBP-3 (human IGFBP-3), GH, insulin, leptin, and FFA concentrations were collected at 30-min intervals throughout the study. All determinations were also performed on portal vein blood obtained at the end of the experiments. The total amount of blood drawn during the entire study for various assays is ˜3 cc. After separation of plasma (subsequently used for analysis), the red blood cells were reconstituted in saline and infused back into the animal.
Plasma glucose (sample volume 10 μl) was measured by the glucose oxidase method (Glucose Analyzer II, Beckman Instruments, Palo Alto, Calif.). Plasma [^3H]glucose radioactivity was measured in duplicates in the supernatants of Ba(OH)2 and ZnSO4 precipitates of plasma samples (20 μl) after evaporation to dryness to eliminate tritiated water. […] Plasma insulin (10 μl) was measured by RIA using rat insulin standard for basal studies and human insulin standard for insulin clamp studies. […] Plasma non-esterified fatty acid concentrations (5 μl) were determined by an enzymatic method with an automated kit according to the manufacturer's specification (Waco Pure Chemical Industries, Osaka, Japan). Rat IGF-1 (50 μl) was measured with a rIGF-1 ELISA kit (DSL, Webster, Tex.). Human IGF-1 (50 μl) was measured with an in-house kit developed in UCLA using a double monoclonal antibody ELISA with sensitivity of 0.1 ng/ml and an intra-assay and inter-assay coefficient of variations which are <6% and <8%, respectively, in the range from 1 to 6 ng/ml. Human IGFBP-3 (30 μl) was measured with an ELISA kit (DSL, Webster, Tex.). This kit reads both IGFBP-3 and NLS IGFBP-3. […] Serum levels of rat growth hormone were determined using an enzyme immunoassay (EIA) kit (ALPCO, Windham, N.H.) according to the manufacturer's instructions. […]
Under steady-state conditions for plasma glucose concentrations, the rate of glucose disappearance (Rd) equals the rate of glucose appearance (Ra). The latter was calculated as the ratio of the rate of infusion of [3-^3H]glucose (dpm/min) and the steady-state plasma [^3H]glucose specific activity (dpm/mg). […]

[1] = 0.06 mg/kg/hr IV, hyperinsulinemic clamp

IGFBP-3: non glycosylated hIGFBP-3 (IGF binding protein-3), provided by Celtrix
human IGFBP-3 levels during the IGFBP-3 infusion (0.06 mg/kg/hr IV for 3 h): 1960 ± 360 ng/mL | higher HGP compared to controls [1]: 30% | reduction in insulin stimulated glucose uptake compared to controls [1]: ~17% | level in rat CSF after peripheral infusion, mean (peripherally infused IGFBP-3): 7 ng/mL
